Source: article PMC6850273, “Cyanophage MazG is a pyrophosphohydrolase but unable to hydrolyse magic spot nucleotides” (Environmental Microbiology Reports, 2019)

Columns and labels:
Test in all cases: PiPER pyrophosphate assay kit, released phosphate
Settings in all cases: 1 μg purified protein; SE of three replicates
[1] = substrate: Nc1nc2c(ncn2[C@H]2C[C@H](O)[C@@H](COP(=O)(O)OP(=O)(O)OP(=O)(O)O)O2)c(=O)[nH]1; assay type: biochemical, Synechococcus sp. WH 7803
Text: (§1) PiPER pyrophosphate assay kit, released phosphate on Synechococcus sp. WH7803 'large' MazG (Syn MazG)

[2] = substrate: Nc1ncnc2c1ncn2[C@H]1C[C@H](O)[C@@H](COP(=O)(O)OP(=O)(O)OP(=O)(O)O)O1; assay type: biochemical, Synechococcus sp. WH 7803
Text: as §1

[3] = substrate: O=c1ccn([C@@H]2O[C@H](COP(=O)(O)OP(=O)(O)OP(=O)(O)O)[C@@H](O)[C@H]2O)c(=O)[nH]1; assay type: biochemical, Synechococcus sp. WH 7803
Text: as §1

[4] = substrate: Nc1ncnc2c1ncn2[C@@H]1O[C@H](COP(=O)(O)OP(=O)(O)OP(=O)(O)O)[C@@H](O)[C@H]1O; assay type: biochemical, Synechococcus sp. WH 7803
Text: as §1

[5] = substrate: Nc1ccn([C@H]2C[C@H](O)[C@@H](COP(=O)(O)OP(=O)(O)OP(=O)(O)O)O2)c(=O)n1; assay type: biochemical, Synechococcus sp. WH 7803
Text: as §1

[6] = substrate: Nc1ccn([C@@H]2O[C@H](COP(=O)(O)OP(=O)(O)OP(=O)(O)O)[C@@H](O)[C@H]2O)c(=O)n1; assay type: biochemical, Synechococcus sp. WH 7803
Text: as §1

[7] = substrate: Nc1nc2c(ncn2[C@@H]2O[C@H](COP(=O)(O)OP(=O)(O)OP(=O)(O)O)[C@@H](O)[C@H]2O)c(=O)[nH]1; assay type: biochemical, Synechococcus sp. WH 7803
Text: as §1

[8] = substrate: Nc1nc2c(ncn2[C@H]2C[C@H](O)[C@@H](COP(=O)(O)OP(=O)(O)OP(=O)(O)O)O2)c(=O)[nH]1; assay type: biochemical, Synechococcus phage S-PM2
Text: (§2) PiPER pyrophosphate assay kit, released phosphate on cyanophage S-PM2 MazG (viral MazG)

[9] = substrate: Nc1ncnc2c1ncn2[C@H]1C[C@H](O)[C@@H](COP(=O)(O)OP(=O)(O)OP(=O)(O)O)O1; assay type: biochemical, Synechococcus phage S-PM2
Text: as §2

[10] = substrate: Nc1nc(O)nc2c1ncn2[C@H]1C[C@H](O)[C@@H](COP(=O)(O)OP(=O)(O)OP(=O)(O)O)O1; assay type: biochemical, Synechococcus phage S-PM2
Text: as §2

[11] = substrate: O=c1ccn([C@@H]2O[C@H](COP(=O)(O)OP(=O)(O)OP(=O)(O)O)[C@@H](O)[C@H]2O)c(=O)[nH]1; assay type: biochemical, Synechococcus phage S-PM2
Text: as §2

[12] = substrate: Nc1ncnc2c1ncn2[C@@H]1O[C@H](COP(=O)(O)OP(=O)(O)OP(=O)(O)O)[C@@H](O)[C@H]1O; assay type: biochemical, Synechococcus phage S-PM2
Text: as §2

[13] = substrate: Nc1ccn([C@H]2C[C@H](O)[C@@H](COP(=O)(O)OP(=O)(O)OP(=O)(O)O)O2)c(=O)n1; assay type: biochemical, Synechococcus phage S-PM2
Text: as §2

[14] = substrate: Nc1ccn([C@@H]2O[C@H](COP(=O)(O)OP(=O)(O)OP(=O)(O)O)[C@@H](O)[C@H]2O)c(=O)n1; assay type: biochemical, Synechococcus phage S-PM2
Text: as §2

[15] = substrate: Cc1cn([C@H]2C[C@H](O)[C@@H](COP(=O)(O)OP(=O)(O)OP(=O)(O)O)O2)c(=O)[nH]c1=O; assay type: biochemical, Synechococcus phage S-PM2
Text: as §2

[16] = substrate: O=c1ccn([C@H]2C[C@H](O)[C@@H](COP(=O)(O)OP(=O)(O)OP(=O)(O)O)O2)c(=O)[nH]1; assay type: biochemical, Synechococcus phage S-PM2
Text: as §2

B1: Synechococcus sp. WH7803 'large' MazG (Syn MazG) (Synechococcus sp. WH 7803) (protein)
chain: MAQHATVPGDQDPLRYLESVVARLRDPVNGCPWDLEQTHASLVPYVLEEAHEVADAIRHGDDRHLKEELGDLLLQVVLHARIGAENNRFDLDAIATTISDKLIRRHPHVFGEARAENTEAVRLSWEAIKAAERAEQSGGEQSSSPLSDQLAGKVRGQPALAAAMTISRKAAKAGFEWDAIDGVWGKVQEELDELKEAIASGDRRHAQDELGDVLFTLVNVARWCGLDPEEGLAATNQRFLDRFSRVESALNGDLQGRSIQELEALWQQAKAAIRAENTQSS
notes: recombinant, over-expressed in E. coli and purified (tag details only in supplement); two MazG domains
With B1 the Km [1] was 0.85 (±0.07) mM, the Vmax [1] was 0.64 µmol/min/mg and the kcat [1] was 0.753 ± 0.293 s⁻¹. For the same protein, the Km [2] was 0.3 (±0.09) mM, the Vmax [2] was 1.8 µmol/min/mg and the kcat [2] was 2.1 ± 0.323 s⁻¹. For the same protein, the Km [3] was 1.33 (±0.3) mM, the Vmax [3] was 3.02 µmol/min/mg and the kcat [3] was 3.68 ± 0.1 s⁻¹. For the same protein, the Km [4] was 0.63 (±0.23) mM, the Vmax [4] was 2.55 µmol/min/mg and the kcat [4] was 2.99 ± 0.407 s⁻¹. For the same protein, the Km [5] was 0.14 (±0.03) mM, the Vmax [5] was 3.81 µmol/min/mg and the kcat [5] was 4.46 ± 0.417 s⁻¹. For the same protein, the Km [6] was 1.2 (±0.21) mM, the Vmax [6] was 1.96 µmol/min/mg and the kcat [6] was 2.3 ± 0.164 s⁻¹. For the same protein, the Km [7] was 0.26 (±0.02) mM, the Vmax [7] was 0.7 µmol/min/mg and the kcat [7] was 0.824 ± 0.153 s⁻¹.

B2: cyanophage S-PM2 MazG (viral MazG) (Synechococcus phage S-PM2) (protein)
chain: MSKVNFERYQEFVSEVTSDASTNFVDFADRIGELDREGANIERLLTAGVGINAEGGEFLEIIKKMVFQGKPWNRDNREHLIIELGDIMWYVAQACIALGVSFDDVISGNVKKLEKRYPGGEFDVFYSENRSADDR
notes: recombinant, over-expressed in E. coli, purified by imidazole elution (tag details only in supplement); single MazG domain
With B2 the Km [8] was 0.14 (±0.01) mM, the Vmax [8] was 10.3 µmol/min/mg and the kcat [8] was 6.67 ± 0.165 s⁻¹. For the same protein, the Km [9] was 1.2 (±0.21) mM, the Vmax [9] was 1.62 µmol/min/mg and the kcat [9] was 1.05 ± 0.124 s⁻¹. For the same protein, the Km [10] was 4.86 (±1.13) mM, the Vmax [10] was 1.65 µmol/min/mg and the kcat [10] was 1.93 ± 0.0658 s⁻¹. The Km [11] was 0.6 (±0.37) mM, the Vmax [11] was 3.31 µmol/min/mg and the kcat [11] was 2.15 ± 0.119 s⁻¹. For the same protein, the Km [12] was 1.43 (±0.36) mM, the Vmax [12] was 2.28 µmol/min/mg and the kcat [12] was 1.48 ± 0.157 s⁻¹. For the same protein, the Km [13] was 1.16 (±0.04) mM, the Vmax [13] was 8.86 µmol/min/mg and the kcat [13] was 5.74 ± 0.129 s⁻¹. The Km [14] was 0.85 (±0.11) mM, the Vmax [14] was 2.51 µmol/min/mg and the kcat [14] was 1.62 ± 0.111 s⁻¹. The Km [15] was 1.23 (±0.06) mM, the Vmax [15] was 5.68 µmol/min/mg and the kcat [15] was 3.68 ± 0.13 s⁻¹. For the same protein, the Km [16] was 3.24 (±1.55) mM, the Vmax [16] was 4.22 µmol/min/mg and the kcat [16] was 4.94 ± 0.395 s⁻¹.
